Assay results from publication PMC3201865 (Nucleic Acids Research, 2011).

Target: recombinant full-length USP7 (UniProt Q93009 1-1102)
Test: co-IP

Chain of recombinant full-length USP7 (Q93009 whole entry): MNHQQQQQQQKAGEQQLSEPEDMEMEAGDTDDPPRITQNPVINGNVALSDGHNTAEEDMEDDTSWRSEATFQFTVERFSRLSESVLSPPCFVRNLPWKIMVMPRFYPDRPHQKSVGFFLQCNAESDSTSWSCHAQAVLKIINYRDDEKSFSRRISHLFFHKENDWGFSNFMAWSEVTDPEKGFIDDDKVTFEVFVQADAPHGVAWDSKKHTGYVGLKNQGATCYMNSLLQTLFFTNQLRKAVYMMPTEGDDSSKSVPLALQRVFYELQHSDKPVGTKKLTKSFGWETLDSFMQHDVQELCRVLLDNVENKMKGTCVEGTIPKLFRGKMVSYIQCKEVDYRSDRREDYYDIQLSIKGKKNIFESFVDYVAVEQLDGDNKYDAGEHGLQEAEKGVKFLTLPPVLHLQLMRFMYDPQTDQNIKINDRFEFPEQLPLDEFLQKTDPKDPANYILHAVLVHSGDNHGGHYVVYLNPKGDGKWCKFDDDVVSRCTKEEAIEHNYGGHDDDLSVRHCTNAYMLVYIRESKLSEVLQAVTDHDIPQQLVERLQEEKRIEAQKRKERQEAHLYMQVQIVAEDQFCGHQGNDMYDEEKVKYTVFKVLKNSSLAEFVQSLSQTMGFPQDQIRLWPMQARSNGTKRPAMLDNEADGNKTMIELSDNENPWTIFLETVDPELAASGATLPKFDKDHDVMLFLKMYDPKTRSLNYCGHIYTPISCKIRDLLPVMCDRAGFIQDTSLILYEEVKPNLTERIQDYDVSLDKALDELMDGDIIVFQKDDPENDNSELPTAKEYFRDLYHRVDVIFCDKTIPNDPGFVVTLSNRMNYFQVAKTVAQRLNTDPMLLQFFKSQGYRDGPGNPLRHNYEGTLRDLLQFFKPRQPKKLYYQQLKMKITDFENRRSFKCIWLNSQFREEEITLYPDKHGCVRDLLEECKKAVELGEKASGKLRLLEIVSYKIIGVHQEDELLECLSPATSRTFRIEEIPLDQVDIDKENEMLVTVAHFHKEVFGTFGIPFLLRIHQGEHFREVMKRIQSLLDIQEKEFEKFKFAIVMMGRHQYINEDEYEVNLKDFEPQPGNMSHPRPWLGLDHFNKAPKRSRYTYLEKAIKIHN

B1: recombinant full-length UHRF1 (natural protein)
chain: MWIQVRTMDGRQTHTVDSLSRLTKVEELRRKIQELFHVEPGLQRLFYRGKQMEDGHTLFDYEVRLNDTIQLLVRQSLVLPHSTKERDSELSDTDSGCCLGQSESDKSSTHGEAAAETDSRPADEDMWDETELGLYKVNEYVDARDTNMGAWFEAQVVRVTRKAPSRDEPCSSTSRPALEEDVIYHVKYDDYPENGVVQMNSRDVRARARTIIKWQDLEVGQVVMLNYNPDNPKERGFWYDAEISRKRETRTARELYANVVLGDDSLNDCRIIFVDEVFKIERPGEGSPMVDNPMRRKSGPSCKHCKDDVNRLCRVCACHLCGGRQDPDKQLMCDECDMAFHIYCLDPPLSSVPSEDEWYCPECRNDASEVVLAGERLRESKKKAKMASATSSSQRDWGKGMACVGRTKECTIVPSNHYGPIPGIPVGTMWRFRVQVSESGVHRPHVAGIHGRSNDGAYSLVLAGGYEDDVDHGNFFTYTGSGGRDLSGNKRTAEQSCDQKLTNTNRALALNCFAPINDQEGAEAKDWRSGKPVRVVRNVKGGKNSKYAPAEGNRYDGIYKVVKYWPEKGKSGFLVWRYLLRRDDDEPGPWTKEGKDRIKKLGLTMQYPEGYLEALANREREKENSKREEEEQQEGGFASPRTGKGKWKRKSAGGGPSRAGSPRRTSKKTKVEPYSLTAQQSSLIREDKSNAKLWNEVLASLKDRPASGSPFQLFLSKVEETFQCICCQELVFRPITTVCQHNVCKDCLDRSFRAQVFSCPACRYDLGRSYAMQVNQPLQTVLNQLFPGYGNGR
- binding result: binds
